Assay results taken from the RNAGym collection of RNA variant scans (doi:10.7554/elife.80360).

B1: HDV Ribozyme (parent)
chain: GGCCGGCAUGGUCCCAGCCUCCUCGCUGGCGCCGGCUGGGCAACAUUCCGAGGGGACCGUCCCCUCGGUAAUGGCGAAUGGGACCCA

Variants of: B1
Assay: self-cleavage, relative activity (ratio to wild type); higher = more cleavage; co-transcriptional

Variant | self-cleavage
GGCCGGCAUGGUCCCAGCCUCCUCGCAGGCGCCGGCUGGGCAACAUUCCGAGGGGACCGUCCCCUCGGUAAUGGCGAAGGGGACCCA [U27A U79G] | 0.831
GGCCGGCAUGGUCCCAGCCACCUCGCUGGCGCCGGCUGAGCAACAUUCCGAGGGGACCGUCCCCUCGGUAAUGGCGAAUGGGACCCA [U20A G39A] | 0.133
GGCCGGCAUGGUCCCAGCCUCCUCGCUGGCGCCGGCUGGGCAACAUUCCGAGGGGACCGUCCCCUCGCUAAUGGCGAAAGGGACCCA [G68C U79A] | 0.705
GGCCGGGAUGGUCCCAGCCUCCUCGCUGGCGCCGGCUGGGCAACAUACCGAGGGGACCGUCCCCUCGGUAAUGGCGAAUGGGACCCA [C7G U47A] | 0
GGCCGGCAUGGUCCCAGCCUUCUCGCUGGCGCCGGCUGGGCAACAUUCCGAGUGGACCGUCCCCUCGGUAAUGGCGAAUGGGACCCA [C21U G53U] | 0.234
GGCCGGCAUGGUCCCAGCCUCCUCGCUGGCGCCGGCUAGGCAACAUUCCGAGGGGACGGUCCCCUCGGUAAUGGCGAAUGGGACCCA [G38A C58G] | 0.141
GGUCGGCAUGGUCCCAGCCUCCUCGCUGGCGCCCGCUGGGCAACAUUCCGAGGGGACCGUCCCCUCGGUAAUGGCGAAUGGGACCCA [C3U G34C] | 0.182
GGCCGGCAUGGUCCCAGCCUCCUCGCUGGCGUCGGCUGGGCAACAUUCCGAUGGGACCGUCCCCUCGGUAAUGGCGAAUGGGACCCA [C32U G52U] | 0.963
GGCCGGCAUGGUCCCAGCCUCCUCGCUGGCGCCGGCUGGGCAACAUUCCGAGGAGACCCUCCCCUCGGUAAUGGCGAAUGGGACCCA [G54A G59C] | 1.07
GGCCGGCAUGGUCCCAGCCUCCUCGCUGACGCCGGCUGGGCGACAUUCCGAGGGGACCGUCCCCUCGGUAAUGGCGAAUGGGACCCA [G29A A42G] | 0.0415
GGCCGGCAUGGUCGCAGCCUCCUCGCUGGCGCCGGCUGGGCAACAUUCCGAGGGGACCGUCCCCUCGGUAAUGGCGAAUGGGACCUA [C14G C86U] | 1.07
GGCCGGCAUGGUCCCAGCCUCCUCGCUGGCGCCGGCUGGGCAACAGUCCGAGGGGAGCGUCCCCUCGGUAAUGGCGAAUGGGACCCA [U46G C57G] | 0.804
GGCCGGCAUGGUCCCAGCCUACUCGCUGGCGCCGGCUGGGCAACAUUCCUAGGGGACCGUCCCCUCGGUAAUGGCGAAUGGGACCCA [C21A G50U] | 0.0332
GGCCGGCAUGGUCCCAGCCUCCUCGCUGGCGCCGGCUGGGCAACAUUCCGAGGGGACCGUGCCCUCGGUACUGGCGAAUGGGACCCA [C61G A71C] | 0.787
GGCCGGCAUGGUCCCAGCCUCCUAGCUGGCGCCGCCUGGGCAACAUUCCGAGGGGACCGUCCCCUCGGUAAUGGCGAAUGGGACCCA [C24A G35C] | 0.0692
GGCCGGCAUGGUCCCAGCCUCCUCGCUGGCGCCGGCUGGGCAACAUUCCGAUGGGACCGUCCCCUCGGUCAUGGCGAAUGGGACCCA [G52U A70C] | 0.577

Variant | self-cleavage
GGCCAGCAUGGUCCCAGCCUCCUCGCUGGAGCCGGCUGGGCAACAUUCCGAGGGGACCGUCCCCUCGGUAAUGGCGAAUGGGACCCA [G5A C30A] | 0.109
GGCCGGCAUGGUCCCAGCCUCCUCGCUGGCGCCGGCUGGGCAACAUUCCGAAGGGACCGUCCCCUCGGUAAUGGCGAAUGGGAGCCA [G52A C84G] | 0.764
GGCCGGCAUGGUCCCAGCCUCCUCGUUGGCGCCGGCUGGGCAACAUGCCGAGGGGACCGUCCCCUCGGUAAUGGCGAAUGGGACCCA [C26U U47G] | 0.877
GGCCGGCAUGGUCCCAGCCUCCUCGCUGGCGCCGGCUGGGCAACGUUCCGAGGGGACCGUCCUCUCGGUAAUGGCGAAUGGGACCCA [A45G C63U] | 0.956
GGCCGGCAUGGUCCCAGCCUCCUCGCUGGCGCCGGCUGGGCAACAUUCCGAGGGGACCGUCCCCUCGGUACUGGCGCAUGGGACCCA [A71C A77C] | 0.0978
GGCCGGCACGGUCCCAGCCUCCUCGCUGGCGCCGGCUGGGCAACAUUCCGAGGGGACCGUCCACUCGGUAAUGGCGAAUGGGACCCA [U9C C63A] | 1.14
GGCCGGCAUGGUCACAGCCUCCUGGCUGGCGCCGGCUGGGCAACAUUCCGAGGGGACCGUCCCCUCGGUAAUGGCGAAUGGGACCCA [C14A C24G] | 0.146
GGCUGGCAUGGUCCCAGCCUCCUCGCUGGCGCCGGCUGGGCAACAUUCCGAGGGGACCGUCCCCUCGGUGAUGGCGAAUGGGACCCA [C4U A70G] | 0.541
GGCCGGCAUGGUCCCAGCCUCCUCGCUGGCGCCGGCUGGGCAACAUUCCGAGGGGACGGUCCCCUAGGUAAUGGCGAAUGGGACCCA [C58G C66A] | 1.15
GGCUGGCAUGGUCCCAGCCUCCUCCCUGGCGCCGGCUGGGCAACAUUCCGAGGGGACCGUCCCCUCGGUAAUGGCGAAUGGGACCCA [C4U G25C] | 0.0773
GUCCGGCAUGGUCCCAGCCUCCUCGCUGGCGCCGGCUGGGCAACAUUCCGAGGGGACCGCCCCCUCGGUAAUGGCGAAUGGGACCCA [G2U U60C] | 0.0287
GACCGGCAUGGUCCCAGCCACCUCGCUGGCGCCGGCUGGGCAACAUUCCGAGGGGACCGUCCCCUCGGUAAUGGCGAAUGGGACCCA [G2A U20A] | 0.0361
GGCUGGCAUGGUCCCAGCCUCCUCGCUGGCGCCGGCUGGGCAACUUUCCGAGGGGACCGUCCCCUCGGUAAUGGCGAAUGGGACCCA [C4U A45U] | 0.458
AGCCGGCAUGGUCCCAGCCUCCGCGCUGGCGCCGGCUGGGCAACAUUCCGAGGGGACCGUCCCCUCGGUAAUGGCGAAUGGGACCCA [G1A U23G] | 0
GGCCGGCAUGGUCCCAGCCUCCUCGCUGGCGCCGGCUGGGCAACAUUCCGAGGGGACCGUCCCCUCGGUAAUGGCGAAUGGGUCCAA [A83U C86A] | 0.708
GGCCGGCAUGGUCCCAGCCUCCUCUCUGGCGCCGGCUGGGCAACAUUCCGAGGGGACCGUCCCCUCGGUAAUGGCGAGUGGGACCCA [G25U A78G] | 0.185
